# Values quoted from earlier work, collected in article PMC4567495.
# Assays:
# [1] = target: cardiac troponin I switch peptide 147-163 (Homo sapiens) (UniProt P19429); test: NMR
# [2] = target: cardiac troponin I switch peptide (Homo sapiens) (UniProt P19429); test: NMR
# Sequence of cardiac troponin I switch peptide (Homo sapiens) (P19429 2-210): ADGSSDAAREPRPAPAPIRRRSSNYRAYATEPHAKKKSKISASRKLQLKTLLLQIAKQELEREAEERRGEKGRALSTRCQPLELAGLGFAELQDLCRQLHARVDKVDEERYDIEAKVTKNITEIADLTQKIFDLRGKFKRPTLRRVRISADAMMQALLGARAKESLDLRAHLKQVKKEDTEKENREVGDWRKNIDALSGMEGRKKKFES
substance,measurement,setting,value
cardiac troponin C N-domain (from UniProt P63316),Kd,[1],150 µM
same,Kd,[2],> 2000 µM
